Substrate: NCCC(=O)N[C@@H](Cc1cnc[nH]1)C(=O)O
Test: purified protein
Conditions: SAM

B1: carnosine N-methyltransferase (CNMT, CARNMT1, C9orf41) (Homo sapiens) (protein)
chain: MQRRRRPPPPTSRLPEGCGGGGGGSEEVEVQFSAGRWGSAAAVSAAAAAATRSTEEEEERLEREHFWKIINAFRYYGTSMHERVNRTERQFRSLPANQQKLLPQFLLHLDKIRKCIDHNQEILLTIVNDCIHMFENKEYGEDGNGKIMPASTFDMDKLKSTLKQFVRDWSETGKAERDACYQPIIKEILKNFPKERWDPSKVNILVPGAGLGRLAWEIAMLGYACQGNEWSFFMLFSSNFVLNRCSEINKYKLYPWIHQFSNNRRSADQIRPIFFPDVDPHSLPPGSNFSMTAGDFQEIYSECNTWDCIATCFFIDTAHNVIDYIDTIWKILKPGGIWINLGPLLYHFENLANELSIELSYEDIKNVVLQYGFKVEVEKESVLSTYTVNDLSMMKYYYECVLFVVRKPQ
Work on B1 yielded a Km of 4.631 µM.

From publication PMC12615762
